Assay results: US20110287023A1 (AstraZeneca / MedImmune, published 2011)
Residue numbers refer to the chain shown, from its start.

T1: HMG2 coated on ELISA plates (Bos taurus (Bovine), UniProt P40673 2-209)
T1 construct: also called HMGB2; HMBG2
T1 sequence: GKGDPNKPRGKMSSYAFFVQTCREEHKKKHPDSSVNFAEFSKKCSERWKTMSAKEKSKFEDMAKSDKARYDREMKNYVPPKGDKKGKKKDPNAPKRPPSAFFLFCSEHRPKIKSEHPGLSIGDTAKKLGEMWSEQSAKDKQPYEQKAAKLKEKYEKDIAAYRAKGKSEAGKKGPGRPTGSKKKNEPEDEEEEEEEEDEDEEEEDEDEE

T2: HMG1 B Box peptide amino acids 91-169
T2 construct: also called HMG1 peptide 91-169
T2 peptide: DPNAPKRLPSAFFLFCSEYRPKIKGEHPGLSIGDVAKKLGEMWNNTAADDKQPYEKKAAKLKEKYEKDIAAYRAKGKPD

T3: HMG1 purified from calf (bovine) thymus (bovine, UniProt P10103 2-215)
T3 construct: also called Calf thymus HMGB1; thymus HMG1
T3 sequence (looked up): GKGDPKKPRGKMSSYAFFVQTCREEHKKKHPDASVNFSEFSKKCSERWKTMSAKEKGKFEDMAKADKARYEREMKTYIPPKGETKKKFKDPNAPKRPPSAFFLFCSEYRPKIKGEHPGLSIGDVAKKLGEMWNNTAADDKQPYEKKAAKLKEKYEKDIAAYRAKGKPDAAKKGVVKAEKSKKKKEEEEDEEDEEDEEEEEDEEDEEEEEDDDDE

T4: HMG1 B Box peptide amino acids 150-183
T4 peptide: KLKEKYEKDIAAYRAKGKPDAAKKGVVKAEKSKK

T5: recombinant rat HMGB-1 labelled with europium (rat, UniProt P63159 1-215, limits assumed, Eu label, molar ratio HMGB-1 to Eu 1:5)
T5 construct: also called Europium-labeled HMGB-1
T5 sequence (looked up): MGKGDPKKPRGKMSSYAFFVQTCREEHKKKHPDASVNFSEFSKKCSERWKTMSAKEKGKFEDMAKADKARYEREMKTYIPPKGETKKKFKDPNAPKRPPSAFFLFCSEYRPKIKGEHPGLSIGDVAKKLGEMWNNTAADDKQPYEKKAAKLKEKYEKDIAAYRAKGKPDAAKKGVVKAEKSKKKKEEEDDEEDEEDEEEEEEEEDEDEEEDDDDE

T6: activated HMG1 from LPS stimulated THP-1 cells (human, UniProt P09429 1-215)
T6 sequence (looked up): T5 sequence (looked up) with D189E, E202D

B1: human anti-HMG1 antibody S2 (antibody, V domains shown)
VH: EVQLLESGGGLVQPGGSLRLSCAASGFTFSGYMMVWVRQAPGKGLEWVSRISPSGGQTGYADSVKGRFTISRDNSKNTLYLQMNSLRAEDTAVYYCAREEGGSYGAFDIWGQGTMVTVSS
VL: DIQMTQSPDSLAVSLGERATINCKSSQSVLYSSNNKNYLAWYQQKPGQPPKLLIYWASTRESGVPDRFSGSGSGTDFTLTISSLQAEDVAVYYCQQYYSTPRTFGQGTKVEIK
notes: full length IgG1 made from a human Fab phage clone; also called ATCC PTA-6142
B2: human anti-HMG1 antibody G2 (antibody, IgG1, V domains shown)
VH: EVQLLESGGGLVQPGGSLRLSCAASGFTFSWYKMQWVRQAPGKGLEWVSGISPSGGSTAYADSVKGRFTISRDNSKNTLYLQMNSLRAEDTAVYYCAKMGLFNTGNSYVDYWGQGTLVTVSS
VL: AQSELTQPPSVSEAPGQRVTISCSGSTSNIGNNAVIWYQQLPGKAPKLLIYYDDLLPSGVSDRFSGSKSGTSGSLAISGLQSEDEADYYCASWDDNLNGPLFGGGTKLTVL
notes: full length IgG1 made from a human Fab phage clone
B3: human anti-HMG1 antibody S17 (antibody, IgG1, V domains shown)
VH: EVQLLESGGGLVQPGGSLRLSCAASGFTFSYYDMHWVRQAPGKGLEWVSRISPSGGYTWYADSVKGRFTISRDNSKNTLYLQMNSLRAEDTAVYYCTRGRYTSGWHEYFDPWGQGTLVTVSS
VL: DIQMTQSPSSLSASVGDRVTITCRASQSIGTYLNWYQQKPGTAPKVLIYAASSLQSGVPSRFSGSGSGTDFTLTISSLQPEDFSTYYCQQSYNTPRTFGQGTKLEIK
notes: as for B2

Assays:
[1] = target: T1, HMG2 coated on ELISA plates; test: direct ELISA, HMGB2 coated at 5 ug/mL, OD 490
Method: (§1) Binding to HMG1 vs. HMG2: Ultra high-binding ELISA plates (ThermoLab systems, #3855) were coated with either 5 ug/mL of Calf thymus HMGB1 or HMBG2 diluted in 10 mM Phosphate buffered saline (PBS), pH 7.2 and incubate overnight at 4 degrees. The plates were washed twice with Ca and Mg free PBS and 100 microliters of anti-HMGB1 antibody diluted in 10 mM PBS, pH 7.2+1% bovine serum albumin (BSA) to a final concentration of 10 ug/mL was added to each well and the plates were incubated 1 hour at room temperature. The wells were washed three times with 100 μl of PBS, pH 7.2. HRP labeled goat-anti-human IgG Kappa-chain (KPL, #14-10-10) and goat-anti-human IgG Lambda-chain (KPL, #14-10-11) were diluted in 10 mM PBS+1% BSA 1:1000 and 100 μl were added to each well and incubated for 1 hour at room temperature. The wells were then washed three times with 100 μl of PBS, pH 7.2. OPD substrate (Pierce chemical company, #34006) was prepared following the manufacturers instructions and 100 μl of prepared substrate was added to each well and the plates incubated at room temperature in the dark for 20-30 minutes. The reaction was stopped with the addition of 100 μl of 2M H₂SO₄, and the plates read on a plate reader at a wavelength of 490 nm.

[2] = target: T7, recombinant HMG1 produced in E. coli as a calmodulin binding protein (CBP) fusion (human); test: BIAcore 3000, mAb amine-coupled to CM5, HMG1 injected, steady-state model
T7 construct: also called rHMG1; rHMGB1
Method: HMG1 Binding Affinity via BIAcore Analysis: All experiments were performed on a BIAcore 3000 instrument (BIAcore, Inc., Piscataway, N.J.). Briefly, each mAb was immobilized to a CM5 sensor chip using a standard amine coupling chemistry. Separately a reference (control) flow cell was also prepared. Two-fold, serial dilutions of HMG1 in instrument buffer were sequentially injected at a slow flow rate over the individual mAb and reference flow-cell surfaces. Following the binding and dissociation of HMG1, the mAbs surfaces were regenerated with a brief pulse of 1M NaCl-50 mM NaOH. At the end of each experiment, the binding curves were evaluated using a steady-state model available through the BIAevaluation software supplied by BIAcore, Inc. (Piscataway, N.J.).

[3] = target: T7, recombinant HMG1 produced in E. coli as …; test: cell-based or functional assay
[4] = target: T2, HMG1 B Box peptide amino acids 91-169; test: ELISA, HMG1 B Box peptide 91-169 coated at 10 ug/ml, antibody titrated, OD 450
Method: (§2) The plate was then blocked with 4% milk powder dissolved in PBS at 37° C. for 1 hour. The blocking solution was removed and replaced with human anti-HMG1 antibodies at various concentrations (see FIGS. 5A-B). […] HRP activity was detected with Sureblue HRP substrate (KPL). Plates were read at 450 nm using a Kinetic Microplate Reader (Molecular Devices). […] After washing and blocking with 1% BSA in PBS, the biotinylated peptides were individually added into the avidin coated wells and incubated for 30 min at room temperature. The serial diluted antibody G4, S16 and S6 at the initial concentration at 10 μg/ml were then transferred into the wells followed by adding mouse anti human IgG-HRP conjugate (Pierce). Detection was accomplished by adding 50 μl of tetramethylbenzidine (TMB) substrate (KPL) and the absorbance was read at 450 nm.

[5] = target: T7, recombinant HMG1 produced in E. coli as …; test: sandwich ELISA: antibody titrated and captured on anti-human IgG Fc, soluble recombinant HMG1 at 2 ug/ml, mouse anti-HMGB1 and anti-mouse IgG-HRP, OD 450
Method: Sandwich ELISA (soluble HMG1): Immunoplates (EIA/RIA plate, High binding, Costar) were coated with anti human IgG Fc at 10 μg/ml in PBS (pH 7.2) and incubated at 4° C. overnight. The coating reagent was removed and the plates were rinsed briefly with PBS. The plates were then blocked with 4% milk for 1 hour at 37° C. and rinsed with PBS. The anti-HMG1 antibodies were diluted in 4% milk. For serial dilutions, the antibodies were used at a starting concentration of 20 μg/ml. The diluted anti-HMG1 antibodies were then added into plate and incubated for 1 hr at 37° C. The plate was then washed 10 times with PBST (PBS/0.1% tween 20) and incubate with antigen (HMGB1, 2 μg/ml; or 0.7 μg/ml for native HMGB1) in 4% milk and incubated at 37° C. for 1 h. The plate was then wash 10 times and incubated with mouse anti-HMGB1, 1 μg/ml in 4% milk at 37° C. for 1 h. The plate was washed 10 times and incubated with anti-mouse IgG-HRP at 1:1000 at 37° C. for 1 h. The plate was then washed and developed. HRP activity was detected with Sureblue HRP substrate (KPL). Plates were read at 450 nm using a Kinetic Microplate Reader (Molecular Devices).

[6] = target: T3, HMG1 purified from calf (bovine) thymus; test: direct ELISA, calf thymus HMGB1 coated at 5 ug/mL, antibody at 10 ug/mL, anti-human kappa/lambda-HRP, OD 490
Method: as §1

[7] = target: T7, recombinant HMG1 produced in E. coli as …; test: ELISA, coated RAGE-Fc, rHMG1 preincubated with antibody
Method: HMG1 binding to RAGE-Ig by ELISA: 50 μl/well of RAGE-Fc fusion protein at 5 μg/ml in PBS was added to each well of an ELISA plate and incubated overnight at 4° C. The plate was then blocked with 200 μl of 5% milk at 37° C. for 1 hr and washed 3× with PBS/Tween. 50 μl/well of diluted HMGB1 solution. For dose curves, HMGB1 concentrations started at 4 ug/ml in PBS. For antibody blocking the HMGB1 was preincubated in another plate with human anti-HMG1 antibodies or buffer, then transferred to the RAGE-coated plate. The plates were then incubated at room temperature for 2 hours and washed 3×. To detect any HMG1 bound to the immobilized RAGE-Fc a mixture of biotinylated mouse anti-HMG1 mAbs (10D4, 4H11, 3E10 and 5C12) each at 1 ug/ml, total Ab: 4 ug/ml, were added to each well and the plate was incubated for 1 hour at room temperature. The plate was then washed and Strepavidin-HPR was added to each well and incubated 15 min. The plate was then washed 3× and blotted dry. 100 μl of TMB developing agent was added and the plate read at 650 nm. Values were calculated as percent of inhibition with HMG1 alone equal to 0% inhibition. The data in FIG. 9 and summarized in Table 1 represent the average of two separate experiments.

[8] = target: T4, HMG1 B Box peptide amino acids 150-183; test: ELISA, HMG1 B Box peptide 150-183 coated at 10 ug/ml, antibody titrated, OD 450
Method: as §2

[9] = target: T5, recombinant rat HMGB-1 labelled with …; test: inhibition of binding of 2 nM Eu-labelled recombinant rat HMGB-1 to THP-1 cells
Method: HMG1 binding to THP-1 Cells: Recombinant rat HMGB-1 was labeled using Eu-labelling Kit from PerkinElmer. Molar ratio of HMGB-1 to Eu is 1:5. THP-1 were cultured as the protocol from ATCC. Cells were harvested and suspended at concentration 1×10⁶/ml in assay buffer containing 1×DELFIA L*R binding buffer (PerkinElmer), 50% of DELFIA stabilizer (PerkinElmer) and 0.05% of sodium azide. 100 μl of cells (1×10⁵) was added into wells in 96 well cell culture plate. The plate was incubated with gentle shaking at 4° C. for one hour. 100 μl of assay buffer containing 2 nM of Europium-labeled HMGB-1 mixed with various concentrations (333, 166.5, 83.25, 41.6, 20.8, 10.4 and 5.2 nM) of human anti-HMGB1 antibodies E11 or G2 or soluble human RAGE-Fc, were added into each wells respectively. After one hour incubation with gentle shaking at 4° C., the cells were washed four times with 1×L*R wash buffer (PerkinElmer) by centrifuging at 1200 rpm×5 min. 200 μl of enhancement solution was added into each well to dissociate and enhance Eu fluorescence at 615 nm. The fluorescence was measured with Wallac Victor Fluorometer. Assay was performed in triplicate and human antibody R3-47 was used the negative isotype control.

[10] = target: T6, activated HMG1 from LPS stimulated …; test: cell-based or functional assay

T7 sequence (P09429 whole entry, the tested form may be a part): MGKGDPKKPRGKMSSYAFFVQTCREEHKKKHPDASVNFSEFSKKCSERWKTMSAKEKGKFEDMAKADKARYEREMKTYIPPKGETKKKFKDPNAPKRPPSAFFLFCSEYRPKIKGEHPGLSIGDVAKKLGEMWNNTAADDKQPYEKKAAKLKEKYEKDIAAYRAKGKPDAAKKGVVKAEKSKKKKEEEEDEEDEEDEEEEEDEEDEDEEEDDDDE

| Binder | binding result [1] | Kd [2] [nM] | IC50 IL-1β [3] [µg/mL] | IC50 IL-6 [3] [nM] | IC50 TNF-α [3] [µg/mL] | binding result [4] | EC50 (read off the curve) [5] [µg/mL] | binding result [6] | percent inhibition of HMG1 binding to RAGE [7] [%] | binding result [8] | IC50 IL-12 [3] [µg/mL] | IC50 [9] [nM] | IC50 NO [3] [µg/mL] | IC50 nm IL-6 Native HMGB [10] [nM] |
| --- | --- | --- | --- | --- | --- | --- | --- | --- | --- | --- | --- | --- | --- | --- |
| B1 | no binding (tested: 10 ug/mL (single concentration)) | 36 | 0.22 | 0.163 | 0.0642 | no binding (tested: 10 ug/ml (log 1.0)) | ~0.08 | binds | ≥ 35 | no binding (tested: 10 ug/ml (log 1.0)) |  |  |  |  |
| B2 | no binding (tested: 10 ug/mL (single concentration)) | 101 | 5.03 | 0.994 | 1.35 | no binding (tested: 10 ug/ml (log 1.0)) |  | binds |  | no binding (tested: 10 ug/ml (log 1.0)) | 1.26 | 73.3 |  |  |
| B3 | no binding (tested: 10 ug/mL (single concentration)) | 331 | 0.0809 | 0.162 |  | no binding (tested: 10 ug/ml (log 1.0)) |  | binds |  | no binding (tested: 10 ug/ml (log 1.0)) |  |  | 41.7 | 11.4 |
